According to the RNAGym collection of RNA variant scans (doi:10.7554/elife.90254):

B1: LINE1-full (parent)
chain: UACGUAGGUGGUUUUCCCCUGAUAGUGCUAAGGGGGCCUGGAAGUUUGGACUGGGCAGAGCUCAACACAGCGUGGCAAAGUGGCUGUGGCUAGACUGCCUCUCUGGAUUCCUCGUCACUCAGCAGGGCAUCUCUGAGAGAAAUGCC

Variants of: B1
Assay: self-cleavage, relative activity (ratio to wild type); higher = more cleavage; in vitro, sequencing; the parent is a self-cleaving ribozyme

Variant | self-cleavage
C90U U132A | 0.01
G139A A140G | 0.19
C3U U73A | 0.91
G34U A50U | 0.39
U47A U132C | 1.41
A30G G88C | 0.44
U46C U108C | 1.69
A6G C66U | 0.15
C76U U108C | 2.53
C95A A121U | 0.05
U20C U45A | 1.2
A43G C76U | 1.66
A78U U130A | 2.96
G35U A79G | 1.22
A64G A65G | 0.11
U39A C98U | 0.45
C3U U87C | 0.12
G10A A22U | 1.55
A42U G72U | 0.62
U1C U5C | 0.87
A30G G126U | 0.96
A124U U134C | 1.51
G40A U73A | 0.81
A30U A43U | 0.58

Variant | self-cleavage
U112C U134A | 0.61
G82A U87C | 0.17
U29C A107U | 1.21
A59C U102C | 2.07
A67G U115A | 0.61
U47C U62A | 0.04
C16U U39C | 1.35
U26C U46C | 1.71
A24G G93A | 0.13
U9A G105A | 1.35
U13A U96C | 0.1
G89A U109C | 0.04
U20C U119C | 1.35
G49U G70A | 0.04
U47G U112C | 0.8
A142U U143A | 1.13
U29C U52A | 1.16
G27A C111A | 1.16
G4A U102C | 0.82
A141G G144A | 1.28
U23A U112C | 1.18
A42C C95U | 0.04
C61U A67G | 1.08
G55C A141G | 0.55

Variant | self-cleavage
C3A A64G | 0
A24G A121C | 2.3
U52A G106C | 1.84
A6G G137U | 0.81
A22C U102C | 1.55
C76U A117G | 2.24
A107G U115G | 0
U15C G114C | 1.59
A42G G58A | 0
U9C A121U | 1.32
U46A A129U | 0.78
U12G A136U | 0.76
A24U G49A | 1.39
U14G C18A | 1.09
A141C U143C | 1.67
A57G A65G | 0.1
A42U A43U | 0.84
G93A G105U | 0.02
G75A G82U | 1.07
G8U C37G | 1.18
A24G A124U | 1.54
A140C U143C | 1.81
A107U A138G | 1.71
A30G C38U | 1.2

Variant | self-cleavage
U14C U29C | 1.4
G7A U130C | 0.94
A77U U115A | 0.82
A79G G139U | 1.19
G21A G114A | 2.07
U5A G32A | 0.93
A30G U115A | 1.17
G80A U91A | 0.76
A42U U143C | 0.94
U87C C111U | 0.23
U130A C133U | 2.3
C90G A121U | 0.02
U5C U52G | 1.23
A6G C18U | 0.59
C66U A136G | 0.04
U47G U134C | 0
U112C G139A | 1.36
C123A U134C | 1.04
C19U C76U | 1.64
C38U | 1.33
C84G A94U | 0.13
U14C A78C | 1.74
G72C U134A | 0.97
U15C U39G | 1.6

Variant | self-cleavage
U39A U119C | 1.44
U39A A142G | 1.53
U52G | 1.45
C63U U81C | 0.4
A64C A129G | 0.51
A2U A67G | 0.61
C101G | 1.78
A42U U52A | 1.2
C38U U119A | 1.24
C76U A129U | 1.57
U1C U20C | 0.79
A57G A141G | 0.72
A50G U108C | 1.2
U52C U130A | 1.04
C19A U100C | 0.9
U5A A31U | 1.1
G72A A124G | 0.52
C56G U91C | 0.05
G82A A138U | 1.9
A79U C110A | 1.64
A64U C111A | 0.35
A42G U73A | 1.52
G60A U109C | 0.02
U23C A121C | 1.9

Variant | self-cleavage
U85C A129U | 0.19
A57U A142U | 0.08
G36A U45C | 1.81
U134A A136G | 0.53
U14A U45C | 1.09
U46C U81C | 1.46
A6G G86A | 0.31
U45C A129G | 1.4
U20A A107G | 1.37
A78G U143C | 1.18
U81C A140G | 1.07
C128U A140G | 0.89
U20G U109C | 0.93
U45C A140U | 1.05
A117G A129U | 1.29
U47G U91C | 0.1
U1C U85C | 0.2
U1A A31U | 1.11
G8A A65G | 0
U96C A142U | 0.12
A50G C56U | 0.06
U5A U14C | 0.85
G4A U12C | 0.77
U1A U12C | 1.4

Variant | self-cleavage
G54A U87C | 0.1
A129U A136G | 1
G74C U132A | 1.46
U91G C111U | 0.02
G74A A94G | 0.15
G36A C84U | 0.15
U62C C111U | 0.02
A42G U108C | 1.55
A59U U108C | 1.09
C98A A140G | 0.12
U9A A78U | 1.65
U45C U96A | 0.07
A79G A94U | 0.26
U9A A138G | 0.87
A30G U91C | 0.65
U102A U130C | 1.89
U13A A107G | 1.11
A79G A124U | 1.19
G105A U108C | 1.56
C61A A124G | 0.04
C68U A117G | 0.12
A59G U109A | 0.09
A92G A124U | 0.09
U46C U62A | 0.05

Variant | self-cleavage
A50C A77U | 0.35
U52G U143A | 1.32
G114A A141G | 0.89
A136G G137A | 2.12
A43G A64U | 0.4
U26A U102G | 0.38
U96A G97A | 0.09
U39G A142G | 0.77
U47C A77G | 2.3
A92U U130G | 1.61
A57G U112C | 0.68
U5A U20A | 1.12
A59G A64U | 0.08
U45C G89A | 0.01
G36C A141G | 1.36
U26A G58U | 0.05
U47C A64G | 0.31
C120U A124G | 1.26
U9C U26C | 1.35
U23C U102C | 1.33
U13A U47A | 1.01
G41C A59G | 0.19
U108C A140G | 1.74
C19U G40A | 1

Variant | self-cleavage
A64G U115C | 0.27
G53A U100C | 1.09
A65U A121U | 0.24
G8A C38U | 1.41
A69U G72A | 0.04
U20C G135A | 1.48
U14C C123U | 1.05
G60A U96A | 0.03
A59G A65U | 0.08
A59G C76U | 0.12
A59G A69U | 0.06
A22U U112A | 1.19
A24C A57G | 1.17
A2G U81C | 1.14
A43G A57U | 0.21
A42G U52C | 1.17
A2G U39A | 0.89
U23C A142G | 1.61
U12C A129G | 1.4
U23C U96A | 0.12
U1C U12A | 0.95
A79U A129G | 2.13
A42C A67G | 0.52
A65G A79G | 0.09

Variant | self-cleavage
U52A G72A | 1.55
U1A U14C | 1.71
U1A A117G | 1.37
G32U U45A | 1.17
A64U U109G | 0.23
A78G A136U | 1.79
U115C A129G | 1.64
U9A U143G | 1.98
G7U | 1.35
U1A G72A | 1.55
U29C C120A | 1.24
U87A A142G | 0.07
U1C U52G | 1.33
G25U A140G | 0.7
G53A U96A | 0.06
U29C A138G | 1.72
A2G G27A | 0.19
A121G U143A | 0.91
U14C U119A | 1.25
U20G A42G | 0.67
U20C G72U | 0.9
G74A U115C | 1.46
U62A A77U | 0.01
C103U U130C | 0.84

Variant | self-cleavage
U46C G125U | 0.8
G49U C76U | 2.46
U29A U73C | 1.63
U100A A142G | 0.77
U87A U91A | 0.12
U1A U119C | 1.73
G34U U104C | 1.34
U46A A121U | 1.43
A43U U108C | 1.08
G25A C38U | 0.64
C38A U96G | 0.1
U46C C66U | 0.02
U5C U119C | 1.41
U15C U91C | 0.77
A31U A59G | 0.14
U12C A121U | 1.11
G122A U130C | 1.91
C28A G126A | 0.66
A57G G126A | 1.19
A59G A124G | 0.13
A79U U132C | 2.24
U39C G122A | 1.25
C113U U115A | 1.05
U13A A142G | 1.2

Variant | self-cleavage
U52C U81C | 1.08
A94U C116U | 0.33
U26C U39C | 0.9
G32A C51U | 0.88
U87G C118U | 0.17
U9A U102C | 1.03
A43C A77U | 1.39
U96A A140G | 0.06
U47G U52A | 1.18
U26C C61A | 0.06
A64G U132C | 0.39
A67G G74A | 0.45
G34A A57C | 0.07
A43G G144A | 1.39
A59G U102A | 0
G53U U112C | 1.31
A92G A136U | 0.05
U23C A136U | 1.19
U12C U87C | 0.21
U5C A117G | 0.81
U13C A121U | 1.26
A24U U87C | 0.3
U13A U23C | 1.62
A65G G126A | 0.02

Variant | self-cleavage
U104A A121U | 1.11
G25C | 1.4
A22G U109A | 1.13
G32A C68U | 0
A6C A129U | 0.77
A59C | 0.96
A67G A77U | 0.3
A69U U115A | 0.07
U39C U100G | 0.59
A65U A138G | 0.24
G44C A64G | 0.24
U23A U102A | 1.18
U91C A141G | 0.92
A79U A94U | 0.25
U13C U100C | 1.4
G53U A140C | 0.8
G34A C66U | 0.05
C116U A140U | 0.71
G75A A94U | 0.35
U20C A67G | 0.74
G48A G122A | 1.27
A78U | 1.92
A136U A138G | 1.55
U15C U104A | 1.05

Variant | self-cleavage
A30G A138G | 0.64
U91C | 0.67
U12G U81C | 0.86
C71A A77G | 0.18
U85C U130C | 0.23
U26C U85A | 0.11
U23A U134G | 0.89
U81G U104A | 1.23
C66A A136G | 0.04
U46C G126A | 0.59
C101A U132C | 1.39
U9C A141U | 1.53
C118G | 1.27
A24U A67U | 0.1
A69G U85C | 0.51
U39C A107C | 2.09
A43G A79U | 1.8
U1A A78C | 1.65
G8U U13C | 2.33
A77G G127A | 2.11
U96A A136U | 0.09
C133A U143C | 1.67
